In patent publication US20200181283A1 (AGENCY FOR SCIENCE TECHNOLOGY AND RESEARCH, published 2020):

Experiments:
purified human PRL-3 [1] = target: T1, purified human PRL-3 (human, UniProt O75365 1-173, limits assumed); assay: KinExA kinetic exclusion assay
T1 construct: Antigen of the KinExA analysis; also called PTP4A3; PRL-3 antigen

purified human PRL-3 [2] = target: T1, purified human PRL-3; assay: KinExA kinetic exclusion assay, purified antibody and purified human PRL-3

T1 sequence (O75365 whole entry): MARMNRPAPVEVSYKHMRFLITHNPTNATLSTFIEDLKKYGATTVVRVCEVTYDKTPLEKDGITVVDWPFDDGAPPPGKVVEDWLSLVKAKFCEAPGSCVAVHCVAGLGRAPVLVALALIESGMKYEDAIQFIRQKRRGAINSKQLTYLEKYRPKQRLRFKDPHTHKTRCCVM

B1: PRL3-zumab (antibody, V domains shown)
VH: QVQLVQSGAEVKKPGASVKVSCKASGYTFTNYYMHWVRQAPGQLEWMGWIYPGNVNTYYNEKFRGRVTITADTSASTAYMLSSLRSEDTAVYYCASEEKNYPWFAYWGQGTLVTS
VL: DTQLTQSPSSLSASVGDRVTICKASQSVEDDGENYMNWYQQKPGSPKLLIYAASNLESGIPARFSGSGSGTDFTLTISSLPEDFATYYCQQSNEDPFTFGSGTKLEIK
- koff (purified human PRL-3 [1]): 6.68e-05 s⁻¹
- kon (purified human PRL-3 [1]): 1.06e+07 M⁻¹ s⁻¹
- Kd (purified human PRL-3 [2]): 6.29 pM
